Values quoted from earlier work in patent US20230285262A1, “Skin Compositions and Uses” (Stemetrix, Inc., priority 2013, published 2023).

Key:
[1] = tested on: erythropoiesis-stimulating response; settings: per mg of protein
[2] = commercial preparation judged 98% pure

**Q.** For “IGF-1: insulin-like growth factor-1, commercial preparation judged 98% pure by PAGE and HPLC”, which ED50 (FDC-P1 cells; [2]) is on record?
**A.** Its ED50 is 2.0 ng/mL.

**Q.** And the specific activity (FDC-P1 cells; corresponding to ED50)?
**A.** The specific activity was ≥ 5×10^5 units/mg.

**Q.** For “EGF: human epidermal growth factor, commercial preparation judged 98% pure by PAGE and HPLC”, which ED50 (balb/c 3T3 cells; [2]) is on record?
**A.** Its ED50 is ≤ 0.1 ng/mL.

**Q.** What about the specific activity (balb/c 3T3 cells; corresponding to ED50) of the same substance?
**A.** Its specific activity is ≥ 1×10^7 units/mg.

**Q.** With “Human urinary EPO: isolated human urinary EPO, international reference standard for EPO assays” as the substance, how does the specific activity [1] read?
**A.** Its specific activity is “about 70,000 U/mg”.

**Q.** Which “expected ED50” value (mouse HT-2 cells; [2]) does the source give for “TGFβ3: human transforming growth factor beta-3, commercial preparation judged 98% pure by PAGE and HPLC” here?
**A.** The value was 0.05 ng/mL.

**Q.** What about the specific activity (mouse HT-2 cells; corresponding to ED50) of the same substance?
**A.** The specific activity was ≥ 2×10^7 units/mg.
